T1: human FcγRIIa (131H), His- and GST-tagged (human, UniProt P12318 34-217)
T1 construct: also called H131 FcγRIIa; HIIa; not shown: 6xHis and GST tags of the pTT5 vector
T1 sequence (looked up): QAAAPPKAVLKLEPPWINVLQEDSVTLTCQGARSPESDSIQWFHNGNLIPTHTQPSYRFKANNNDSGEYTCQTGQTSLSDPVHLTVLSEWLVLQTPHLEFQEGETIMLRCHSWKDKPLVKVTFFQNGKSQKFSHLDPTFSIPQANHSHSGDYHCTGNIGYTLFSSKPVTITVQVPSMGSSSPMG

T2: human FcγRIIa (131R), His- and GST-tagged (human, UniProt P12318 34-217)
T2 construct: Expressed in HEK293T cells, purified by nickel chromatography; also called R131 FcγRIIa; not shown: 6xHis and GST tags of the pTT5 vector
T2 sequence (looked up): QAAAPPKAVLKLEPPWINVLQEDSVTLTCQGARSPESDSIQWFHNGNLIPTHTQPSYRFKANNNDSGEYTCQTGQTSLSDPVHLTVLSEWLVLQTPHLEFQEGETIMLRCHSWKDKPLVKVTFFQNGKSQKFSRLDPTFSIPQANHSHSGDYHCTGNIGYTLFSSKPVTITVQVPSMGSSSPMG

T3: human FcγRIIb receptor protein (R&D Systems) (human, UniProt P31994 46-217)
T3 construct: Bought protein injected over captured antibody in Biacore; also called CD32b
T3 sequence (looked up): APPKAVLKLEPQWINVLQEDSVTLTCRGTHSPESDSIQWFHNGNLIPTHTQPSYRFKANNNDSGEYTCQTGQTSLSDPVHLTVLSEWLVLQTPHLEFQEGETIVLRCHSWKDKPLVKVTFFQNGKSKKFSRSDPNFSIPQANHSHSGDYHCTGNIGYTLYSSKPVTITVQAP

T4: cynoFcγRIIb (Macaca fascicularis, UniProt A0A140HDP4)
T4 construct: extracellular region, C-terminal His- and GST-tag; also called cynomolgus monkey FcγRIIb
T4 sequence (receptor extracellular region): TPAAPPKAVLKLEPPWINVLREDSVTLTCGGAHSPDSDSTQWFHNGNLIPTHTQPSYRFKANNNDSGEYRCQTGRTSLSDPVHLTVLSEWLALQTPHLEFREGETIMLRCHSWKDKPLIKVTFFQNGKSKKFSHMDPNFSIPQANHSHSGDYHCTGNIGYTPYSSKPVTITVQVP

T5: mFcγRIV
T5 construct: also called mouse FcγRIV; not shown: C-terminal His and GST tags (named only on our card)
T5 chain: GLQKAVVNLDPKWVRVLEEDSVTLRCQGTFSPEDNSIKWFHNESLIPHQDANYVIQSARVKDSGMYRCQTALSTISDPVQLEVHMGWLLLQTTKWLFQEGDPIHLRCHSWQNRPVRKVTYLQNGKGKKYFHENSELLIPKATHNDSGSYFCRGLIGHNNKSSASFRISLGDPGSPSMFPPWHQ

T6: mFcγRIIb (Mus musculus, UniProt P08101)
T6 construct: extracellular region, C-terminal His- and GST-tag; also called mouse FcγRII
T6 sequence (receptor extracellular region, looked up): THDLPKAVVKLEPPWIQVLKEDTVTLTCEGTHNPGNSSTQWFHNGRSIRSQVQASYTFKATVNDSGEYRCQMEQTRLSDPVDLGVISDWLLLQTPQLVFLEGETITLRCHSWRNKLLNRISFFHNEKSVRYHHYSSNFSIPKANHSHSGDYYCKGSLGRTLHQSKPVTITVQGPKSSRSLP


Assays:
[1] = target: T1, human FcγRIIa (131H), His- and …; assay: SPR
[2] = target: T2, human FcγRIIa (131R), His- and …; assay: SPR
[3] = target: T3, human FcγRIIb receptor protein (R&D …); assay: SPR
[4] = target: T7, human FcγRIIIa (158V), His- and GST-tagged (human, UniProt P08637 17-208); assay: SPR
T7 construct: also called V158 FcγRIIIa; VIIIa; not shown: 6xHis and GST tags of the pTT5 vector
T7 sequence (P08637 17-208 F176V): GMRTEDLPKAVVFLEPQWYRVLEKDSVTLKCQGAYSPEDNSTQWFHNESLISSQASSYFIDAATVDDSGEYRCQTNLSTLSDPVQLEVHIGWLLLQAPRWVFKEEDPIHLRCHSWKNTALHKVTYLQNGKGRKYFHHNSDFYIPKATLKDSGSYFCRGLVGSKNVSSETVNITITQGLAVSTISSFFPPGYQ

[5] = target: T8, human FcγRI receptor protein (R&D Systems) (human, UniProt P12314 16-288); assay: SPR
T8 construct: also called soluble FcγRI; solFcγRI
T8 sequence (P12314 16-288 limits assumed): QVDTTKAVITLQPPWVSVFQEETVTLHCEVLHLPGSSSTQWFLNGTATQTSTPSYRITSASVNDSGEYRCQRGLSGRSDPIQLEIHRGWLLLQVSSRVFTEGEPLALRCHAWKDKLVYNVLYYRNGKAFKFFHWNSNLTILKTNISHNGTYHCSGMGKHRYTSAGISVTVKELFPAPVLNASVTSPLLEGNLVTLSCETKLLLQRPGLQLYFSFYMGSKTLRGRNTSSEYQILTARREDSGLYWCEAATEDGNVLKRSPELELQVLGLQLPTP

cynoFcγRIIb [6] = target: T4, cynoFcγRIIb; assay: SPR, off-rate
Protocol: (§1) Variants were screened for receptor affinity using Biacore™ technology, also referred to as Biacore herein, a surface plasmon resonance (SPR) based technology for studying biomolecular interactions in real time. SPR measurements were performed using a Biacore 3000 instrument (Biacore, Piscataway, N.J.). A protein A/G (Pierce Biotechnology) CM5 biosensor chip (Biacore) was generated using a standard primary amine coupling protocol. All measurements were performed using HBS-EP buffer (10 mM HEPES pH 7.4, 0.15 M NaCl, 3 mM EDTA, 0.005% vol/vol surfactant P20, Biacore). Antibodies at 20 nM or 50 nM in HBS-EP buffer were immobilized on the protein A/G surface and FcγRs were injected. After each cycle, the surface was regenerated by injecting glycine buffer (10 mM, pH 1.5). Data were processed by zeroing time and response before the injection of FcγR and by subtracting appropriate nonspecific signals (response of reference channel and injection of running buffer). Kinetic analyses were performed by global fitting of binding data with a 1:1 Langmuir binding model using BIAevaluation software (Biacore).
(§2) Variant antibodies were tested for their affinity to mouse or cynologous monkey FcγRs using Biacore SPR as described above. Specifically, antibodies were first immobilized on a protein A/G chip to high density, and then followed by injections of the extracellular domain of the mouse or cynologous monkey FcγR of interest. Both association and dissociation phases were tracked in real time using the Biacore technology.

mFcγRIV = target: T5, mFcγRIV; assay: SPR
mFcγRIIb [7] = target: T6, mFcγRIIb; assay: SPR
cynoFcγRIIIa = target: T9, cynoFcγRIIIa (Macaca fascicularis, UniProt Q8SPW2); assay: SPR
T9 construct: extracellular region, C-terminal His- and GST-tag; also called cynomolgus monkey FcγRIIIa
T9 sequence (Q8SPW2 17-208): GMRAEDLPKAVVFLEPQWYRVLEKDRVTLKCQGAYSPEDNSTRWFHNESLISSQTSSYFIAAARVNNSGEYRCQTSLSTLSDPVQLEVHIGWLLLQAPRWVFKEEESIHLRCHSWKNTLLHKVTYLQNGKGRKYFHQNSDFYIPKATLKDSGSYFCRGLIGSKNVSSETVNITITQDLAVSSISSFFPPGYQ

mFcγRIIb [8] = target: T6, mFcγRIIb; assay: SPR, off-rate
Protocol: as §1, §2

cynoFcγRIIb [9] = target: T4, cynoFcγRIIb; assay: SPR
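Wherever Fold vs WT IgG1 (off-rate) is given: fold improvement over WT IgG1 so higher means slower dissociation than WT.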

Row | Binder | binding result [1] | Fold vs WT IgG1 [2] [fold] | Kd [2] [nM] | Fold vs WT IgG1 [3] [fold] | Kd [3] [nM] | binding result [4] | Fold vs WT IgG1 [5] [fold] | Kd [5] [nM] | binding result (cynoFcγRIIb [6]) | Fold vs WT IgG1 (off-rate) (mFcγRIV) [fold] | Fold vs WT IgG1 (off-rate) (mFcγRIIb [7]) [fold] | Fold vs WT IgG1 (off-rate) (cynoFcγRIIIa) [fold] | binding result (mFcγRIIb [8]) | Fold vs WT IgG1 [1] [fold] | Kd [1] [nM] | Fold vs WT IgG1 (off-rate) (cynoFcγRIIb [9]) [fold] | Fold vs WT IgG1 [4] [fold] | Kd [4] [nM] | binding result [2] | binding result [3]
1 | A327N (antibody, human IgG1, kappa, HuAM4G7 anti-CD19 IgG1 (m1) with this Fc substitution, EU index; copies: 2 + 2) heavy: not shown light: DIVMTQSPATLSLSPGERATLSCRSSKSLQNVNGNTYLYWFQQKPGQSPQLLIYRMSNLNSGVPDRFSGSGSGTEFTLTISSLEPEDFAVYYCMQHLEYPITFGAGTKLEIKRTVAAPSVFIFPPSDEQLKSGTASVVCLLNNFYPREAKVQWKVDNALQSGNSQESVTEQDSKDSTYSLSSTLTLSKADYEKHKVYACEVTHQGLSSPVTKSFNRGEC | no binding | 0.609 | 1410 | 0.843 | 1740 | no binding | 0.0279 | 11.8 | no binding | 1.16 | 0.643 | 0.313 |  |  |  |  |  |  |  | 
2 | L235E (antibody, human IgG1, kappa, HuAM4G7 anti-CD19 IgG1 (m1) with this Fc substitution, EU index; copies: 2 + 2) heavy: not shown light: DIVMTQSPATLSLSPGERATLSCRSSKSLQNVNGNTYLYWFQQKPGQSPQLLIYRMSNLNSGVPDRFSGSGSGTEFTLTISSLEPEDFAVYYCMQHLEYPITFGAGTKLEIKRTVAAPSVFIFPPSDEQLKSGTASVVCLLNNFYPREAKVQWKVDNALQSGNSQESVTEQDSKDSTYSLSSTLTLSKADYEKHKVYACEVTHQGLSSPVTKSFNRGEC |  | 0.333 | 2580 | 0.55 | 2670 |  |  |  | no binding | 0.857 |  | 0.367 | no binding |  |  |  |  |  |  | 
3 | L235F/S267E (antibody, human IgG1, kappa, HuAM4G7 anti-CD19 IgG1 (m1) with these Fc substitutions, EU index; copies: 2 + 2) heavy: not shown light: DIVMTQSPATLSLSPGERATLSCRSSKSLQNVNGNTYLYWFQQKPGQSPQLLIYRMSNLNSGVPDRFSGSGSGTEFTLTISSLEPEDFAVYYCMQHLEYPITFGAGTKLEIKRTVAAPSVFIFPPSDEQLKSGTASVVCLLNNFYPREAKVQWKVDNALQSGNSQESVTEQDSKDSTYSLSSTLTLSKADYEKHKVYACEVTHQGLSSPVTKSFNRGEC |  | 32.5 | 26.4 | 28.4 | 51.7 | no binding | 0.0176 | 18.7 |  | 0.515 |  | 0.255 | no binding | 0.402 | 1610 | 1.39 |  |  |  | 
4 | L234F (antibody, human IgG1, kappa, HuAM4G7 anti-CD19 IgG1 (m1) with this Fc substitution, EU index; copies: 2 + 2) heavy: not shown light: DIVMTQSPATLSLSPGERATLSCRSSKSLQNVNGNTYLYWFQQKPGQSPQLLIYRMSNLNSGVPDRFSGSGSGTEFTLTISSLEPEDFAVYYCMQHLEYPITFGAGTKLEIKRTVAAPSVFIFPPSDEQLKSGTASVVCLLNNFYPREAKVQWKVDNALQSGNSQESVTEQDSKDSTYSLSSTLTLSKADYEKHKVYACEVTHQGLSSPVTKSFNRGEC | no binding | 0.228 | 3760 | 0.409 | 3590 | no binding | 0.0362 | 9.11 |  | 0.144 |  | 0.561 | no binding |  |  | 0.936 |  |  |  | 
5 | V266M (antibody, human IgG1, kappa, HuAM4G7 anti-CD19 IgG1 (m1) with this Fc substitution, EU index; copies: 2 + 2) heavy: not shown light: DIVMTQSPATLSLSPGERATLSCRSSKSLQNVNGNTYLYWFQQKPGQSPQLLIYRMSNLNSGVPDRFSGSGSGTEFTLTISSLEPEDFAVYYCMQHLEYPITFGAGTKLEIKRTVAAPSVFIFPPSDEQLKSGTASVVCLLNNFYPREAKVQWKVDNALQSGNSQESVTEQDSKDSTYSLSSTLTLSKADYEKHKVYACEVTHQGLSSPVTKSFNRGEC |  | 3.13 | 274 | 1.91 | 770 |  | 1.25 | 0.264 | no binding |  | 2.04 | 0.433 |  | 1.17 | 553 |  | 0.547 | 350 |  | 
6 | A327Q (antibody, human IgG1, kappa, HuAM4G7 anti-CD19 IgG1 (m1) with this Fc substitution, EU index; copies: 2 + 2) heavy: not shown light: DIVMTQSPATLSLSPGERATLSCRSSKSLQNVNGNTYLYWFQQKPGQSPQLLIYRMSNLNSGVPDRFSGSGSGTEFTLTISSLEPEDFAVYYCMQHLEYPITFGAGTKLEIKRTVAAPSVFIFPPSDEQLKSGTASVVCLLNNFYPREAKVQWKVDNALQSGNSQESVTEQDSKDSTYSLSSTLTLSKADYEKHKVYACEVTHQGLSSPVTKSFNRGEC |  | 0.634 | 1350 | 0.011 | 134000 |  |  |  | no binding | 0.361 |  | 0.223 | no binding |  |  |  |  |  |  | 
7 | anti-CD19 antibody HuAM4G7 IgG1 S267G (antibody, Positions in EU numbering; copies: 2 + 2) heavy: not shown light: DIVMTQSPATLSLSPGERATLSCRSSKSLQNVNGNTYLYWFQQKPGQSPQLLIYRMSNLNSGVPDRFSGSGSGTEFTLTISSLEPEDFAVYYCMQHLEYPITFGAGTKLEIKRTVAAPSVFIFPPSDEQLKSGTASVVCLLNNFYPREAKVQWKVDNALQSGNSQESVTEQDSKDSTYSLSSTLTLSKADYEKHKVYACEVTHQGLSSPVTKSFNRGEC |  |  | 517 |  | 1450 |  |  | 0.626 | no binding |  |  |  | no binding |  |  |  |  |  |  | 
8 | L234N (antibody, human IgG1, kappa, HuAM4G7 anti-CD19 IgG1 (m1) with this Fc substitution, EU index; copies: 2 + 2) heavy: not shown light: DIVMTQSPATLSLSPGERATLSCRSSKSLQNVNGNTYLYWFQQKPGQSPQLLIYRMSNLNSGVPDRFSGSGSGTEFTLTISSLEPEDFAVYYCMQHLEYPITFGAGTKLEIKRTVAAPSVFIFPPSDEQLKSGTASVVCLLNNFYPREAKVQWKVDNALQSGNSQESVTEQDSKDSTYSLSSTLTLSKADYEKHKVYACEVTHQGLSSPVTKSFNRGEC |  |  |  |  |  |  |  |  | no binding | 0.2 |  | 0.371 | no binding |  |  |  |  |  | no binding | no binding

From patent publication US20130315910A1 (Xencor, published 2013)
